Data on 3 molecules can be found in paper PMC10397247.

Holding throughout (test): two-hybrid library CCNG1;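 further: natural log of median RNA to DNA barcode read ratio; higher means stronger binding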
The target of one experiment is T1, 4H118-bH.
T1 chain: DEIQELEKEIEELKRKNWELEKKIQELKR

Another experiment addresses T2, 4H170-bH.
T2 chain: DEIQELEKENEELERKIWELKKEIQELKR

Another experiment concerns the target T3, 4H1831-bH.
T3 chain: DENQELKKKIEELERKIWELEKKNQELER

The next experiment has as its target T4, 4H2586-bH.
T4 chain: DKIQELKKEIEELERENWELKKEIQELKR

The target of another experiment is T5, 4H2627-bH.
T5 chain: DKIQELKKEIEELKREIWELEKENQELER

Another experiment deals with T6, 4H2673-bH.
T6 chain: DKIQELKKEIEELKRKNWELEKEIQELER

The target in another experiment is T7, 4H2702-bH.
T7 chain: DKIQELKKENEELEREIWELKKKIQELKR

Another experiment has as its target T8, 4H3010-bH.
T8 chain: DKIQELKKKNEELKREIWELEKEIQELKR

Another experiment has as its target T9, 4H3112-bH.
T9 chain: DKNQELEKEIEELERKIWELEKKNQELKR

For a further experiment, the target named is T10, 4H3427-bH.
T10 chain: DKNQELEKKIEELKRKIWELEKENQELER

The target of another experiment is T11, 4H346-bH.
T11 chain: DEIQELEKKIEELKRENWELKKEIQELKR

Another experiment has as its target T12, 4H3926-bH.
T12 chain: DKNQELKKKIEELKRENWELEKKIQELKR

The target in the next experiment is T13, 4H3961-bA.
T13 chain: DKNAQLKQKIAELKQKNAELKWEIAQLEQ

In a further experiment the target is T14, 4H4073-bH.
T14 chain: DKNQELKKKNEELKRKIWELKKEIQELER

In a further experiment the target is T15, 4H457-bH.
T15 chain: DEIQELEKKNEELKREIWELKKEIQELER

The next experiment has as its target T16, 4H575-bH.
T16 chain: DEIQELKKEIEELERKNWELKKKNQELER

In the next experiment the target is T17, 4H683-bH.
T17 chain: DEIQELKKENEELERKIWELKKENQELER

For a further experiment, the target named is T18, 4H754-bH.
T18 chain: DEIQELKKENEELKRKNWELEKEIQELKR

The target of the next experiment is T19, 4H780-bH.
T19 chain: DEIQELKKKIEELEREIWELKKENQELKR

In a further experiment the target is T20, 4H797-bH.
T20 chain: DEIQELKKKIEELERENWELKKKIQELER

The target of a further experiment is T21, 4H855-bH.
T21 chain: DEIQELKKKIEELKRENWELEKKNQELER

The target of another experiment is T22, 4H883-bN.
T22 chain: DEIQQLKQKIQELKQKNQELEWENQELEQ

A further experiment concerns the target T23, 4H918-bH.
T23 chain: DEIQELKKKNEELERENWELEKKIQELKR

The target of another experiment is T24, 4H953-bH.
T24 chain: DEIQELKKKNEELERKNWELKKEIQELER

In the next experiment the target is T25, 4H968-bH.
T25 chain: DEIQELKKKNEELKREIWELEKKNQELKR

The target of the next experiment is T26, 4H2134-bA.
T26 chain: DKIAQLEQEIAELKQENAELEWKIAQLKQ

The target of the next experiment is T27, 4H2143-bA.
T27 chain: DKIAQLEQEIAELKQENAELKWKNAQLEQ

A further experiment deals with T28, 4H2223-bA.
T28 chain: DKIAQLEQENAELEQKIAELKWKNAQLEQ

Another experiment deals with T29, 4H2438-bA.
T29 chain: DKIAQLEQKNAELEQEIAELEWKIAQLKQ

Another experiment has as its target T30, 4H2473-bA.
T30 chain: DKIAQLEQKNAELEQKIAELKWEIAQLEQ

A further experiment addresses T31, 4H2503-bA.
T31 chain: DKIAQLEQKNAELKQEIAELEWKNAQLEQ

Another experiment deals with T32, 4H2588-bA.
T32 chain: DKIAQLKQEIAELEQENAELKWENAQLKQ

In a further experiment the target is T33, 4H2692-bA.
T33 chain: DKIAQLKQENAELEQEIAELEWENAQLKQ

The next experiment addresses T34, 4H2717-bA.
T34 chain: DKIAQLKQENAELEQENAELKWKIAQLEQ

The next experiment concerns the target T35, 4H2839-bA.
T35 chain: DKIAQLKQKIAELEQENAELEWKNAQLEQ

Another experiment has as its target T36, 4H2915-bA.
T36 chain: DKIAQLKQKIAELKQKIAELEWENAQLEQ

The next experiment deals with T37, 4H3057-bA.
T37 chain: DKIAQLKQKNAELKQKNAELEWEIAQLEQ

Another experiment concerns the target T38, 4H319-bA.
T38 chain: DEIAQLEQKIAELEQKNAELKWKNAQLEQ

In another experiment the target is T39, 4H3277-bA.
T39 chain: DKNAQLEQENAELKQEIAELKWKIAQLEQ

The target of another experiment is T40, 4H348-bA.
T40 chain: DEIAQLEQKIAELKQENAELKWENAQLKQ

For the next experiment, the target named is T41, 4H40-bA.
T41 chain: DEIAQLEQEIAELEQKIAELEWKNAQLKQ

In another experiment the target is T42, 4H477-bA.
T42 chain: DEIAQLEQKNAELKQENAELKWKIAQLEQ

The next experiment deals with T43, 4H492-bA.
T43 chain: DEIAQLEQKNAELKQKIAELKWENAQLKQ

The next experiment addresses T44, 4H741-bA.
T44 chain: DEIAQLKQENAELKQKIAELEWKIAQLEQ

In the next experiment the target is T45, O14-bN.
T45 chain: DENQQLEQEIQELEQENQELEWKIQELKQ

The target in another experiment is T46, 4H2937-bN.
T46 chain: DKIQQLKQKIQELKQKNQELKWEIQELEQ

Another experiment concerns the target T47, 4H2944-bN.
T47 chain: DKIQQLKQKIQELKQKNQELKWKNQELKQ

In a further experiment the target is T48, 4H342-bN.
T48 chain: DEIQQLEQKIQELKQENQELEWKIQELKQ

Another experiment addresses T49, 4H48-bN.
T49 chain: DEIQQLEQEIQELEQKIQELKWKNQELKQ

The target in a further experiment is T50, 4H491-bN.
T50 chain: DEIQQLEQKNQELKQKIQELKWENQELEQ

With DEIQELEKEIEELKRKNWELEKKIQELKR [4H118-bH], the interaction score with 4H118-bH is 1.75; in the experiment with 4H170-bH, 1.57; in the experiment with 4H1831-bH, -0.127; with 4H2586-bH it was 0.817; with 4H2627-bH it was 1.09; with 4H2673-bH, 1.9. In addition, the interaction score in the experiment with 4H2702-bH amounted to 0.513; in the experiment with 4H3010-bH, 1.94; with 4H3112-bH it was 0.102; in the experiment with 4H3427-bH, 1.04; with 4H346-bH, 0.654; with 4H3926-bH, 1.57. Further, the interaction score is 1.46 with 4H3961-bA; 0.239 in the experiment with 4H4073-bH; 0.505 in the experiment with 4H457-bH; -0.101 with 4H575-bH; -0.584 with 4H683-bH; 0.181 with 4H754-bH. The interaction score in the experiment with 4H780-bH was 0.443; with 4H797-bH it was -0.304; with 4H855-bH it was 0.119; with 4H883-bN it was 1.72; in the experiment with 4H918-bH, 0.604; with 4H953-bH, 0.224. This molecule yielded an interaction score with 4H968-bH of 1.49.

As for DKIAQLEQEIAELKQENAELEWKIAQLKQ [4H2134-bA], the interaction score in the experiment with 4H2134-bA is 1.43; in the experiment with 4H2143-bA, 1.32; with 4H2223-bA, -0.522; with 4H2438-bA it was 0.819; with 4H2473-bA, 0.432; with 4H2503-bA it was 0.834. Moreover, the interaction score with 4H2588-bA was 0.531; with 4H2692-bA it was -0.139; with 4H2717-bA, -0.277; in the experiment with 4H2839-bA, 0.969; with 4H2915-bA, 1.66; in the experiment with 4H3057-bA, 2.33. In addition, the interaction score with 4H319-bA is -0.399; with 4H3277-bA it was 0.0479; in the experiment with 4H348-bA, -1.14; with 4H40-bA, 0.811; with 4H477-bA, 0.935; in the experiment with 4H492-bA, 0.114. For the same molecule, the interaction score with 4H741-bA was -1.46; with O14-bN, -1.45.

Take DKIQQLKQKIQELKQKNQELKWEIQELEQ [4H2937-bN]: the interaction score with 4H2937-bN is -0.616; with 4H2944-bN, -1.12; with 4H342-bN, 1.46; with 4H48-bN it was -0.313; with 4H491-bN it was -1.11.
